Biological target: T1, human CD19 (antigen) (human, UniProt P15391 20-291, limits assumed)
T1 sequence (looked up): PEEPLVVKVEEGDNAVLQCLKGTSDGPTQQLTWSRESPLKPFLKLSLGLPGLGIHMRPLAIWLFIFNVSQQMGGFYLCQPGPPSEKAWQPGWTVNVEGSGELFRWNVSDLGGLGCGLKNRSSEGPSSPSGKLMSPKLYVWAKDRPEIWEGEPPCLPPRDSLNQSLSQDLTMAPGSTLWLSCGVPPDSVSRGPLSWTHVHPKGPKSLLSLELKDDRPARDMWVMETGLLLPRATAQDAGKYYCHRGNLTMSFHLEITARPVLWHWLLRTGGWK
Test: affinity determination, method not stated; humanized monoclonal antibody

B1: humanized anti-CD19 antibody (H-CD19) (antibody, V domains shown)
VH: QVTLRESGPALVKPTQTLTLTCTFSGVSLPDYGVSWIRQPPGKALEWLAVIWGSETTYYNSALKSRLTISKDTSKNQVVLTMTNMDPVDTATYYCAKHYYYGGSYAMDYWGQGTTVTVSS
VL: EIVLTQSPATLSLSPGERATLSCRASQDISKYLNWYQQKPGQAPRLLIYHTSRLHSGIPDRFSGSGSGTDFTLTISRLEPEDIAVYYCQQGNTLPYTFGQGTKLEI
notes: also called humanized monoclonal antibody
- Kd: 28.4 nM
